Target: human TrkA transmembrane domain peptide (TrkA-TM-wt) (human)
Assay: NMR structure

human TrkA transmembrane domain peptide (TrkA-TM-wt) (domain or fragment)
stoichiometry N: 2

— doi:10.1101/721233
